B1: purified recombinant human caspase-3 (protein)
chain: SGISLDNSYKMDYPEMGLCIIINNKNFHKSTGMTSRSGTDVDAANLRETFRNLKYEVRNKNDLTREEIVELMRDVSKEDHSKRSSFVCVLLSHGEEGIIFGTNGPVDLKKITNFFRGDRCRSLTGKPKLFIIQACRGTELDCGIETDSGVDDDMACHKIPVEADFLYAYSTAPGYYSWRNSKDGSWFIQSLCAMLKQYADKLEFMHILTRVNRKVATEFESFSFDATFHAKKQIPCIVSMLTKELYFYH

Experiments:
[1] = biological target: full length αII-spectrin, rat (UniProt P16086)
[2] = biological target: full length αII-spectrin, rat, P16086

| Molecule | αII-spectrin fragmentation patterns (Western blot after in vitro digestion of rat brain cortex lysate) [1] | αII-spectrin fragmentation patterns (Western blot after in vitro digestion of rat brain cortex lysate) [2] |
| --- | --- | --- |
| purified porcine calpain-2 | calpain-produced SBDP150 | – |
| B1 | – | Caspase-3-produced SBP150i |
